In US20220306765A1 (SUZHOU TRANSCENTA THERAPEUTICS, published 2022):

Key:
[1] = molecular target: T1, human CLDN18.2 (human); experiment: FACS, NUGC4 cells
T1 construct: also called hCLDN18.2; Claudin-18 splice variant 2

[2] = molecular target: T2, human CLDN18.1 (human, UniProt P56856 1-261); experiment: FACS, HEK293-CLDN18.1 cells
T2 construct: on HEK293-CLDN18.1 cells; also called Claudin-18 splice variant 1; NP_057453.1

[3] = molecular target: T1, human CLDN18.2; experiment: FACS, HEK293-CLDN18.2 cells
[4] = molecular target: human CLDN18.2-mRFP Q29A (human); experiment: FACS, transfected HEK293, 10 µg/ml antibody;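 also: antibody binding detected by flow cytometry with FITC-labelled anti-human IgG secondary, gated on RFP-positive cells, mutant signal relative to wild-type CLDN18.2-mRFP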
Procedure: (§1) The transfected HEK293-CLDN18.2 or HEK293-CLDN18.1 cell were resuspended in PBS with 2% BSA at density of 10\hat{ }5/well, 100 μl/well. […] Next, cells were washed 3 times by FACS washing buffer and incubated with 100 μl/well goat anti-hIgG (H+L)-FITC (1:200 dilution) at 4° C. for another 30 min. Finally, cells were washed 3 times by FACS washing buffer and analyzed by Flow Cytometry. To analyze binding to CLDN18.2 transfected cells, the RFP positive cells were used for control gating.
(§2) Subsequently, these plasmids of mutants and wild-type CLDN18.2-mRFP were transfected into HEK293 cell.

[5] = molecular target: human CLDN18.2-mRFP W30A (human); experiment: FACS, transfected HEK293, 10 µg/ml antibody;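 also: antibody binding detected by flow cytometry with FITC-labelled anti-human IgG secondary, gated on RFP-positive cells, mutant signal relative to wild-type CLDN18.2-mRFP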
Chain of human CLDN18.2-mRFP W30A (human) (chain, as listed by the source W30A W30A limits assumed): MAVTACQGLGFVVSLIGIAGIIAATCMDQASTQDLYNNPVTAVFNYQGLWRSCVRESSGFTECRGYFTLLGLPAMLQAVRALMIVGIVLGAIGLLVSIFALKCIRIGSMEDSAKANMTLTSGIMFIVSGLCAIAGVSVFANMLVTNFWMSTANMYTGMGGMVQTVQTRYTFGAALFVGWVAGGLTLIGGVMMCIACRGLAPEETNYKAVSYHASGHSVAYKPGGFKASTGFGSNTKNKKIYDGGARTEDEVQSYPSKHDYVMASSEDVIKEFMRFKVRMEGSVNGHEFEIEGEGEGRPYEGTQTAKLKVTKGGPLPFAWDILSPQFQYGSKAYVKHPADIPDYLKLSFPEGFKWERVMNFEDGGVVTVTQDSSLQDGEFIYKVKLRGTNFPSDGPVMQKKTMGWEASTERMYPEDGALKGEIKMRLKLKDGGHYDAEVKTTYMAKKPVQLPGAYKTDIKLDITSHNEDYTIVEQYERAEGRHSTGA
Procedure: as §1, §2

[6] = molecular target: human CLDN18.2-mRFP S31A (human); experiment: FACS, transfected HEK293, 10 µg/ml antibody;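 also: antibody binding detected by flow cytometry with FITC-labelled anti-human IgG secondary, gated on RFP-positive cells, mutant signal relative to wild-type CLDN18.2-mRFP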
Chain of human CLDN18.2-mRFP S31A (human) (chain, as listed by the source S31A S31A limits assumed): as the sequence (chain, as listed by the source W30A W30A limits assumed) above, with A30W, S31A counted along it
Procedure: as §1, §2

[7] = molecular target: human CLDN18.2-mRFP T32A (human); experiment: FACS, transfected HEK293, 10 µg/ml antibody;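 also: antibody binding detected by flow cytometry with FITC-labelled anti-human IgG secondary, gated on RFP-positive cells, mutant signal relative to wild-type CLDN18.2-mRFP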
Procedure: as §1, §2

[8] = molecular target: human CLDN18.2-mRFP Q33A (human); experiment: FACS, transfected HEK293, 10 µg/ml antibody
Procedure: as §1, §2

[9] = molecular target: human CLDN18.2-mRFP D34A (human); experiment: FACS, transfected HEK293, 10 µg/ml antibody
Procedure: as §1, §2

[10] = molecular target: human CLDN18.2-mRFP L35A (human); experiment: FACS, transfected HEK293, 10 µg/ml antibody
Procedure: as §1, §2

[11] = molecular target: human CLDN18.2-mRFP Y36A (human); experiment: FACS, transfected HEK293, 10 µg/ml antibody
Procedure: as §1, §2

[12] = molecular target: human CLDN18.2-mRFP N37A (human); experiment: FACS, transfected HEK293, 10 µg/ml antibody
Procedure: as §1, §2

[13] = molecular target: human CLDN18.2-mRFP N38A (human); experiment: FACS, transfected HEK293, 10 µg/ml antibody
Chain of human CLDN18.2-mRFP N38A (human) (chain, as listed by the source N38A N38A limits assumed): as the sequence (chain, as listed by the source W30A W30A limits assumed) above, with A30W, N38A counted along it
Procedure: as §1, §2

[14] = molecular target: human CLDN18.2-mRFP V40A (human); experiment: FACS, transfected HEK293, 10 µg/ml antibody
Procedure: as §1, §2

[15] = molecular target: human CLDN18.2-mRFP V43A (human); experiment: FACS, transfected HEK293, 10 µg/ml antibody
Chain of human CLDN18.2-mRFP V43A (human) (chain, as listed by the source V43A V43A limits assumed): as the sequence (chain, as listed by the source W30A W30A limits assumed) above, with A30W, V43A counted along it
Procedure: as §1, §2

[16] = molecular target: human CLDN18.2-mRFP F44A (human); experiment: FACS, transfected HEK293, 10 µg/ml antibody
Procedure: as §1, §2

[17] = molecular target: human CLDN18.2-mRFP N45A (human); experiment: FACS, transfected HEK293, 10 µg/ml antibody
Procedure: as §1, §2

[18] = molecular target: human CLDN18.2-mRFP L49A (human); experiment: FACS, transfected HEK293, 10 µg/ml antibody
Chain of human CLDN18.2-mRFP L49A (human) (chain, as listed by the source L49A L49A limits assumed): as the sequence (chain, as listed by the source W30A W30A limits assumed) above, with A30W, L49A counted along it
Procedure: as §1, §2

[19] = molecular target: human CLDN18.2-mRFP W50A (human); experiment: FACS, transfected HEK293, 10 µg/ml antibody
Procedure: as §1, §2

[20] = molecular target: human CLDN18.2-mRFP R51A (human); experiment: FACS, transfected HEK293, 10 µg/ml antibody
Procedure: as §1, §2

[21] = molecular target: human CLDN18.2-mRFP R55A (human); experiment: FACS, transfected HEK293, 10 µg/ml antibody
Chain of human CLDN18.2-mRFP R55A (human) (chain, as listed by the source R55A R55A limits assumed): as the sequence (chain, as listed by the source W30A W30A limits assumed) above, with A30W, R55A counted along it
Procedure: as §1, §2

[22] = molecular target: human CLDN18.2-mRFP E56A (human); experiment: FACS, transfected HEK293, 10 µg/ml antibody
Chain of human CLDN18.2-mRFP E56A (human) (chain, as listed by the source E56A E56A limits assumed): as the sequence (chain, as listed by the source W30A W30A limits assumed) above, with A30W, E56A counted along it
Procedure: as §1, §2

[23] = molecular target: human CLDN18.2-mRFP S57A (human); experiment: FACS, transfected HEK293, 10 µg/ml antibody
Procedure: as §1, §2

[24] = molecular target: human CLDN18.2-mRFP S58A (human); experiment: FACS, transfected HEK293, 10 µg/ml antibody
Procedure: as §1, §2

[25] = molecular target: human CLDN18.2-mRFP F60A (human); experiment: FACS, transfected HEK293, 10 µg/ml antibody
Procedure: as §1, §2

[26] = molecular target: human CLDN18.2-mRFP T61A (human); experiment: FACS, transfected HEK293, 10 µg/ml antibody
Procedure: as §1, §2

[27] = molecular target: human CLDN18.2-mRFP E62A (human); experiment: FACS, transfected HEK293, 10 µg/ml antibody
Procedure: as §1, §2

[28] = molecular target: human CLDN18.2-mRFP R64A (human); experiment: FACS, transfected HEK293, 10 µg/ml antibody
Chain of human CLDN18.2-mRFP R64A (human) (chain, as listed by the source R64A R64A limits assumed): as the sequence (chain, as listed by the source W30A W30A limits assumed) above, with A30W, R64A counted along it
Procedure: as §1, §2

[29] = molecular target: human CLDN18.2-mRFP F67A (human); experiment: FACS, transfected HEK293, 10 µg/ml antibody
Procedure: as §1, §2

[30] = molecular target: human CLDN18.2-mRFP T68A (human); experiment: FACS, transfected HEK293, 10 µg/ml antibody
Chain of human CLDN18.2-mRFP T68A (human) (chain, as listed by the source T68A T68A limits assumed): as the sequence (chain, as listed by the source W30A W30A limits assumed) above, with A30W, T68A counted along it
Procedure: as §1, §2

[31] = molecular target: human CLDN18.2-mRFP L69A (human); experiment: FACS, transfected HEK293, 10 µg/ml antibody
Procedure: as §1, §2

[32] = molecular target: human CLDN18.2-mRFP L70A (human); experiment: FACS, transfected HEK293, 10 µg/ml antibody
Procedure: as §1, §2

[33] = molecular target: human CLDN18.2-mRFP L72A (human); experiment: FACS, transfected HEK293, 10 µg/ml antibody
Procedure: as §1, §2

[34] = molecular target: human CLDN18.2-mRFP M75A (human); experiment: FACS, transfected HEK293, 10 µg/ml antibody
Procedure: as §1, §2

[35] = molecular target: human CLDN18.2-mRFP Q77A (human); experiment: FACS, transfected HEK293, 10 µg/ml antibody
Procedure: as §1, §2

[36] = molecular target: human CLDN18.2-mRFP V79A (human); experiment: FACS, transfected HEK293, 10 µg/ml antibody
Chain of human CLDN18.2-mRFP V79A (human) (chain, as listed by the source V79A V79A limits assumed): as the sequence (chain, as listed by the source W30A W30A limits assumed) above, with A30W, V79A counted along it
Procedure: as §1, §2

B1: 59A9-C (antibody, human IgG1, V domains shown)
VH: QITQKESGPGILQPSQTLSLTCSLSGFSLSTYFIGVGWIRQPSGKGLEWLAHIWWNDNKYYNTALKSRLTISKDTSNNQVFLKIASVDTADTATYYCARMGSGAWFTYWGQGTLVTVSA
VL: DIVMTQSPSSLTVTAGEKVTMSCKSSQSLLNSGNQKNYLTWYQQKPGQPPKLLIYWASTRESGVPDRFTGSGSGTDFTLTISSVQAEDLAVYYCQNDYYYPLTFGSGTKLEIK
notes: also called chimeric 59A9
[1]
  EC50: 19.1 µg/mL
[2]
  binding result: no binding
[3]
  EC50: 1.35 µg/mL
[4]
  binding percentage vs wild-type CLDN18.2: 54.8%
[5]
  binding percentage vs wild-type CLDN18.2: 3.2%
[6]
  binding percentage vs wild-type CLDN18.2: 76.8%
[7]
  binding percentage vs wild-type CLDN18.2: 85.6%
[8]
  binding percentage vs wild-type CLDN18.2: 59.8%
[9]
  binding percentage vs wild-type CLDN18.2: 96.3%
[10]
  binding percentage vs wild-type CLDN18.2: 75.4%
[11]
  binding percentage vs wild-type CLDN18.2: 78%
[12]
  binding percentage vs wild-type CLDN18.2: 60.7%
[13]
  binding percentage vs wild-type CLDN18.2: 57.6%
[14]
  binding percentage vs wild-type CLDN18.2: 128%
[15]
  binding percentage vs wild-type CLDN18.2: 59.4%
[16]
  binding percentage vs wild-type CLDN18.2: 70%
[17]
  binding percentage vs wild-type CLDN18.2: 35.2%
[18]
  binding percentage vs wild-type CLDN18.2: 2.32%
[19]
  binding percentage vs wild-type CLDN18.2: 5.05%
[20]
  binding percentage vs wild-type CLDN18.2: 22.1%
[21]
  binding percentage vs wild-type CLDN18.2: 49.7%
[22]
  binding percentage vs wild-type CLDN18.2: 21.9%
[23]
  binding percentage vs wild-type CLDN18.2: 77.2%
[24]
  binding percentage vs wild-type CLDN18.2: 39.4%
[25]
  binding percentage vs wild-type CLDN18.2: 64.4%
[26]
  binding percentage vs wild-type CLDN18.2: 51.6%
[27]
  binding percentage vs wild-type CLDN18.2: 23.1%
[28]
  binding percentage vs wild-type CLDN18.2: 51%
[29]
  binding percentage vs wild-type CLDN18.2: 79.9%
[30]
  binding percentage vs wild-type CLDN18.2: 71.3%
[31]
  binding percentage vs wild-type CLDN18.2: 54.8%
[32]
  binding percentage vs wild-type CLDN18.2: 82.1%
[33]
  binding percentage vs wild-type CLDN18.2: 53%
[34]
  binding percentage vs wild-type CLDN18.2: 73.6%
[35]
  binding percentage vs wild-type CLDN18.2: 63.4%
[36]
  binding percentage vs wild-type CLDN18.2: 39.1%
